Among the data in patent US20220135701A1 (Genentech, published 2022) are Kd values, retold here.

In one assay the target is T1, HuMER (R26-A499) (human, UniProt Q12866 26-499).
T1 construct: Extracellular domain with both Ig-like and both fibronectin-like domains; also called human MerTK extracellular domain
T1 sequence: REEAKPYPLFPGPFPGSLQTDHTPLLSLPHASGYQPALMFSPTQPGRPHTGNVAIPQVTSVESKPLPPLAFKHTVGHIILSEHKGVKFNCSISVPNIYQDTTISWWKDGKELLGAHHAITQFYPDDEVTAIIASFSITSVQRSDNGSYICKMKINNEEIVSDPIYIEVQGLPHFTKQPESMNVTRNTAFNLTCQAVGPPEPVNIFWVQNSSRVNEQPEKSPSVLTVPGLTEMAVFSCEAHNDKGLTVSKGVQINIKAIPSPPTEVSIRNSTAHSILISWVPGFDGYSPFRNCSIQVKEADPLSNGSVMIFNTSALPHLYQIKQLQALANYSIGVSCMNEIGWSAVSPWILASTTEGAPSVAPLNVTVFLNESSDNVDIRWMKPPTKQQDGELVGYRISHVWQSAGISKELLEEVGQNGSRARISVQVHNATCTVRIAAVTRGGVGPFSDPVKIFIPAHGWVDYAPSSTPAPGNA
Briefly: SPR BIAcore T200, Ab captured, 25C. Summed up: (§1)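 Rabbit antibody captured to ~100 RU; MerTK domain injected as 3-fold dilutions (0.4–100 nM) in HBS-EP pH 7.4 at 25 °C, 30 μl/min. kon and koff from 1:1 Langmuir fit; KD = koff/kon.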

Another assay addresses T2, HuMER.Ig1 (G76-G195) (human, UniProt Q12866 76-195).
T2 construct: also called human MerTK Ig-like 1 domain
T2 sequence: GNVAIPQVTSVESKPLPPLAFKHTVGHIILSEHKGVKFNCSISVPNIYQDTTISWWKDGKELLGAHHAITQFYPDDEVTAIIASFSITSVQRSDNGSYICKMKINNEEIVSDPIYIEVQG
Kind of assay: SPR BIAcore T200, Ab captured, 25C. Summed up: as §1

The target of a further assay is T3, HuMER.Ig1&2 (G76-P284) (human, UniProt Q12866 76-284).
T3 construct: also called human MerTK Ig-like 1&2 domains
T3 sequence: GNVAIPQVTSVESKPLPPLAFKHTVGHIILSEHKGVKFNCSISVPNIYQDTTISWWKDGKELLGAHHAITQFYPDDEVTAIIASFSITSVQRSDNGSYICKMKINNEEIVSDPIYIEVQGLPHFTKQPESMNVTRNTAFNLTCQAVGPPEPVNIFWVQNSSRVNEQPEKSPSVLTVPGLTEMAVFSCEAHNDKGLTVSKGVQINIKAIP
Kind of assay: SPR BIAcore T200, Ab captured, 25C. The gist of the method:
as §1

The target in assay [1] is T4, cynomolgus monkey MerTK (cynomolgus monkey, UniProt A0A2K5V1H9 32-505).
T4 construct: Soluble analyte in SPR; also called Cyno MerTK
T4 sequence: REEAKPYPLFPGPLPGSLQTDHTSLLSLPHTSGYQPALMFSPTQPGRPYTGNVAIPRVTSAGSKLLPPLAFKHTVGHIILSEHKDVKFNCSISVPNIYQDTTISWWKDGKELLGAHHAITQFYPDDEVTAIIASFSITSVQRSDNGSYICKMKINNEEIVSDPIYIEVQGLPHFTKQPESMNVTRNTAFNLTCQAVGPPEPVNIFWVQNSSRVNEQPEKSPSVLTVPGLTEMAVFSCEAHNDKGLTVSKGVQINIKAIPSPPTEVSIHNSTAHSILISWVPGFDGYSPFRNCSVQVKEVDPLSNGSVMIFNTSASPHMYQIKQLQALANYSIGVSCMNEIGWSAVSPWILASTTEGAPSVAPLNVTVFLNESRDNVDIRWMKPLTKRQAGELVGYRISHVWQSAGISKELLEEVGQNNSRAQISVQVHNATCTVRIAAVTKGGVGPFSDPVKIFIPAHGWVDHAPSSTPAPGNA
Briefly: SPR BIAcore T200, Ab captured, 37C. Summed up:
(§2)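 Rabbit or humanized antibody captured to ~100 RU; MerTK injected as 3-fold dilutions from 0.4 nM to 100 nM in HBS-EP (HEPES pH 7.4) at 30 μl/min, at 25° C. or 37° C. kon and koff fitted to a 1:1 Langmuir model; KD = koff/kon.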

Assay [2] has as its target T5, human MerTK (human, UniProt Q12866 26-499).
T5 construct: also called HuMER
T5 sequence: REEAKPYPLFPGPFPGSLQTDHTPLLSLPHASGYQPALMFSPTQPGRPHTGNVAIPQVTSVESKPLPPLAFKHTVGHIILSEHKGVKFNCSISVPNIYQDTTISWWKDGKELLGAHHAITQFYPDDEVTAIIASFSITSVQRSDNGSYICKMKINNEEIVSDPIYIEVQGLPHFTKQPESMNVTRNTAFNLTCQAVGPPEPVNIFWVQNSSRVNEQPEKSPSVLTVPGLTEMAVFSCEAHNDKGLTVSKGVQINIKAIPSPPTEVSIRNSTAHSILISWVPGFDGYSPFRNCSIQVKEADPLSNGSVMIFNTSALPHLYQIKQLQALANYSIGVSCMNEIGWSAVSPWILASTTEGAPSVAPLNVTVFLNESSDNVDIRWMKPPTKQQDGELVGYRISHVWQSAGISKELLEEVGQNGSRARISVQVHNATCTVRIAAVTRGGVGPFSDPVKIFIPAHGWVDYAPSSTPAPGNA
Briefly: SPR BIAcore T200, Ab captured, 37C. Summed up: as §2

Assay [3] has as its target T4, cynomolgus monkey MerTK. Kind of assay: SPR BIAcore T200, Ab captured, 25C. The gist of the method: as §2
For assay [4], the target named is T5, human MerTK. Kind of assay: SPR BIAcore T200, Ab captured, 25C. Summed up:
as §2

Another assay has as its target T6, MuMER (E23-S496) (mouse, UniProt Q60805 23-496).
T6 construct: range 23-496; also called mouse MerTK extracellular domain
T6 sequence (looked up): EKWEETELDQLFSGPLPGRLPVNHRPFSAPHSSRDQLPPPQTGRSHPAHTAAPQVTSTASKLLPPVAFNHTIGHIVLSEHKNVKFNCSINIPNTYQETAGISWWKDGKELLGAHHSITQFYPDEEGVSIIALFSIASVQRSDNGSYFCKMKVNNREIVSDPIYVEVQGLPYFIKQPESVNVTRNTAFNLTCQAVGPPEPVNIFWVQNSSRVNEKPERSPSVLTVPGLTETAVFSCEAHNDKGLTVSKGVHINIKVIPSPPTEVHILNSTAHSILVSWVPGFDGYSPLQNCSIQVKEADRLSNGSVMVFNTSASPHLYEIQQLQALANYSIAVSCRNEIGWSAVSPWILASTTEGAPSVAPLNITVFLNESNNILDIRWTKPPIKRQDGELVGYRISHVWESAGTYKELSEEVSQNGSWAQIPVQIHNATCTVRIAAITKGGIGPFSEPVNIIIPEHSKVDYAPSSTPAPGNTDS
Briefly: SPR BIAcore T200, Ab captured, 25C. Summed up:
as §1

The target in another assay is T7, MuMER.Ig1&2 (A70-P279) (mouse, UniProt Q60805 70-279).
T7 construct: range 70-279; also called mouse MerTK Ig-like 1&2 domains
T7 sequence (looked up): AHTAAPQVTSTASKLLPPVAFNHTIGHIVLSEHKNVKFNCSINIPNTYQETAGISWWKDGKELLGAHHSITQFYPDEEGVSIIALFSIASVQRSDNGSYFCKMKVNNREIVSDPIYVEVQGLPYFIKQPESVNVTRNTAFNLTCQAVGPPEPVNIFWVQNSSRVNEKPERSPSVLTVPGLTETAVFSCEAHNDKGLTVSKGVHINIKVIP
Kind of assay: SPR BIAcore T200, Ab captured, 25C. Summed up: as §1

For another assay, the target named is T8, MuMER.Ig1 (A70-G190) (mouse, UniProt Q60805 70-190).
T8 construct: range 70-190; also called mouse MerTK Ig-like 1 domain
T8 sequence (looked up): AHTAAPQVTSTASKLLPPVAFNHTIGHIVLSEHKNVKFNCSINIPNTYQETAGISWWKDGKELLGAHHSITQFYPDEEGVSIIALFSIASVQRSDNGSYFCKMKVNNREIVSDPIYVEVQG
Briefly: SPR BIAcore T200, Ab captured, 25C. Summed up: as §1

The target in the next assay is T9, mouse MerTK (mouse, UniProt Q60805 23-496).
T9 construct: also called MuMER
T9 sequence (looked up): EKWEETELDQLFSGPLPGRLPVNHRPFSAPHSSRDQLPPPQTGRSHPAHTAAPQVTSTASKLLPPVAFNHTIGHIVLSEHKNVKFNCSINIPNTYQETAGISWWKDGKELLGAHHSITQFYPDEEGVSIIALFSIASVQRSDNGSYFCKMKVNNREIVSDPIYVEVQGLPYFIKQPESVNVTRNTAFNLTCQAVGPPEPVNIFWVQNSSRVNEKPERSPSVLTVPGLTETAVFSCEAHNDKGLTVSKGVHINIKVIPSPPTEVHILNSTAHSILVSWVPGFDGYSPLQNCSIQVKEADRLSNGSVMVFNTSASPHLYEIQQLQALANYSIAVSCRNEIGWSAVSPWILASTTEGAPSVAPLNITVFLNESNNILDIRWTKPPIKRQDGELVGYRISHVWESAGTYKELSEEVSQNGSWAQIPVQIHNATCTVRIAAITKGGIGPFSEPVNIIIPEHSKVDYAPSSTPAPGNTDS
Briefly: SPR BIAcore T200, Ab captured, 25C. Summed up:
as §2

B1: Rbt13B4 (antibody, V domains shown)
VH: QSVEESGGRLVTPGTPLTLTCTVSGFSLSSYAMGWVRQAPGKGLEWIGIINSYGNTYYANWAKGRFTISRTSTTVDLRMPSLTTEDTATYFCARDPGVSSNLWGPGTLVTVSS
VL: DVVMTQTPASVSEPVGGTVTIKCQASQNIYSGLAWYQQKPGQPPKLLIYGASKLASGVSSRFKGSGSGTEFTLTISDLECADAATYYCQATYYSSNSVAFGGGTEVVVK
notes: Recombinant rabbit monoclonal antibody, Expi293, protein A purified; also called Rb13B4
For B1, the Kd with HuMER (R26-A499) turned out to be 2.9 nM; with HuMER.Ig1 (G76-G195), 0.3 nM; with HuMER.Ig1&2 (G76-P284), 8.8 nM; with cynomolgus monkey MerTK [1] it was 5.9 nM; with human MerTK [2], 4.9 nM; with cynomolgus monkey MerTK [3] it was 1.8 nM. Moreover, the equilibrium dissociation constant (Kd) in the assay with human MerTK [4] was 2.9 nM.

B2: Rbt12H4 (antibody, V domains shown)
VH: QSVEESGGRLVTPGTPLTVTCTVSGFSLSVYGMGWVRQAPGKGLEYIGFINNVGNTYYASWAKGRFTISKTSTTVDLKITSPTTEDTATYFCAKGGGGDWGYFNIWGPGTLVTVSL
VL: DVVMTQTPASVEAAVGGTVTIKCQASQSIGNALAWYQQKPGQRPKLLIYAASNLASGVPSRFAGSGSGTQFTLTISDLECADAATYYCQTYYAINRYGGAFGGGTEVVVK
notes: Recombinant rabbit monoclonal antibody, Expi293, protein A purified
Turning to B2, the dissociation constant (Kd) was determined as 18 nM with HuMER (R26-A499); 16.7 nM with HuMER.Ig1 (G76-G195); 8.5 nM with MuMER (E23-S496); 11 nM in the assay with MuMER.Ig1&2 (A70-P279); 2.2 nM with MuMER.Ig1 (A70-G190); 92 nM with HuMER.Ig1&2 (G76-P284). Besides, the figures for the dissociation constant Kd with mouse MerTK, in the assay with cynomolgus monkey MerTK [3] and in the assay with human MerTK [4] were 8.5 nM, 13.9 nM and 18 nM, respectively.

B3: Rbt18G7 (antibody, V domains shown)
VH: QSLEESGGRLVTPGTPLTLTCTVSGIDLSSYALGWVRQAPGKGLEYIGIISSTGTTYYATWAKGRFTISKTSSTTVDLKITGPTTEDTATYFCARGAYAGYVAFGPYYFHIWGPGTLVTISL
VL: DIVMTQTPASVEAAVGGTVTIKCQASQSISNFLAWYQQKPGQPPKVLIYAASHLASGVPSRFKGSGSGTQFTLTISDLECADAATYYCQSYFYSSTSIYNAFGGGTEVVVR
notes: as for B2
Take B3: the Kd with HuMER (R26-A499) was determined as 2.3 nM; with HuMER.Ig1 (G76-G195), 0.5 nM; in the assay with MuMER (E23-S496), 1.7 nM; in the assay with MuMER.Ig1&2 (A70-P279), 1.9 nM; in the assay with MuMER.Ig1 (A70-G190), 0.2 nM; with HuMER.Ig1&2 (G76-P284), 21 nM. Further, the Kd in the assay with mouse MerTK is 1.7 nM; with cynomolgus monkey MerTK [3], 4.3 nM; in the assay with human MerTK [4], 2.3 nM.
